Read-outs that look alike come from different tables or passages of the source.
Columns and labels:
IGF-1 = target: T1, IGF-1 (Homo sapiens, UniProt P05019); test: Biacore binding to IGF-1; settings: experiment 4-79
T1 construct: purchased R&D Sciences or SinoBiologicals
Description: Biacore binding was performed at David Myszka's laboratory at the University of Utah or at the Genomic Research Center at Academia Sinica. Surfaces of binding protein chimera were made via chemical immobilization on a CM4 chip using standard amine coupling chemistry. […] Excess surface carboxyl activated sites on all four flow cells was blocked using the doubly positively charged species ethylenediamine. Binding experiments (but not immobilizations) in HBS-P (10 mM HEPES pH 7.4, 150 mM NaCl, 0.05% P20), The HBS-P was supplemented with BSA at 0.2 mg/mL, or HBS-P was supplemented with 500 mM NaCl (650 mM NaCl, final concentration). Analytes were also reconstituted in the corresponding buffer. All experiments were performed at 25° C. 1/150 dilutions of phosphoric acid were used to regenerate IGFBP3-Fc surfaces and a sequence of 3 M MgCl2 followed by 5 M GuCl was used to regenerate surfaces immobilized with growth factor. Dissociation constants reported below used immobilized binding protein unless noted. Differences between binding constants may be expected between growth factor immobilization and chimera immobilization.

hep3B cells [1] = test: hep3B proliferation assay; type: cell-based, human; settings: for EC50: FIG. 11C, read-out: ECK for FBS-induced proliferation; for IC50: Table 10
Summary of the method: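 Cells seeded at 1,000 to 6,000 per well in DMEM/F12 with 0.2% BSA and 10 ug/ml transferrin. Inhibitors added 16-20 h after plating; IGF-1 or other growth factors at plating or 16-20 h later. After 3 to 4 days, growth read by Alamar blue fluorescence at 544/590 nm after 4 to 6 h.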

[2] = estimated; reference 26; cited from earlier work
HUH7 = HUH7 survival and growth with TKI; type: cell-based, human; settings: FIG. 21
Description: (§1) MCF-7 cells (a breast cancer cell line) were maintained in MEM (GIBCO) plus insulin and NEAA and 10% FBS (Hyclone).
(§2) For the proliferation assay, cells except for HUVEC were seeded at a density of 1,000 to 6,000 in 96 wells in an assay buffer of DMEM/F12 plus 0.2% BSA and 10 ug/ml transferrin. Chemical inhibitors were added after 16-20 hours after plating; IGF-1 or other growth factors or test chimeras in assay buffer were added at the time of plating or 16-20 hours after plating. 5,000 HUVEC ells were plated in poly-L-lysine coated 96 wells in M199 with 1%/FBS and HEPES. After 3 to 4 days of culture, growth was determined by incubating cells with Alamar blue for 4 to 6 hours and then the fluorescence (RFU) at 544/590 nm was read. For long term proliferation assays, cells were plated in the growth media with 5% or 10% FBS at densities of 500 to 10,000 cells per cm^2 growth area and grown for 7 to 21 days. Inhibitors and effectors were added 1-4 days after plating. Cells were exposed to cisplatin or gemcitabine for two days. Medium was renewed twice weekly. At completion, cells were fixed and then stained with Giemsa.
(§3) The addition of chimera D3 to gefitinib reduced this number by about 100-fold.

Hep3B cells [3] = test: Hep3B subcutaneous tumors in NOD-Scid mice; type: in vivo
Description: Hep3B cells were infected with GFP-luciferase lentivirus. The cells with highest GFP expression were selected by FACS sort, and the resulting population was expanded. Two million hep3B cells mixed with Matrigel were injected subcutaneously in NOD-Scid mice, and measurable signal was obtained after 7 days. Treatment began at 8 days after injection (day 0). Luciferase was measured as per the standard Xenogen protocol. IGFBP3.Fc D3 (i.e., the 3(del3)3 chimera) at 20 mg/kg was injected twice weekly; saline was injected in the control group. Tumor growth was measured twice weekly by measuring the luminescence. […]

[4] = system: PC-9 non-small cell lung cancer cells; test: PC-9 subcutaneous tumors in NSG mice, daily erlotinib; type: in vivo; settings: chimera D3 plus erlotinib
Description: (§4) 5×10exp6 PC-9 non-small cell lung cancer cells were injected subcutaneously in Nod scid gamma (NSG) mice. […] Erlotinib in 6% captisol was dosed orally daily at 25 mg/kg; IGFBP3Fc (3(del3)3) was dosed intraperitoneally at 25 mg/kg three times per week; control animals were administered vehicle. Dosing was started on day 11; erlotinib and erlotinib plus D3 was discontinued on day 19; D3 injections were discontinued on day 22.

PC-9 tumors = test: PC-9 subcutaneous tumors in mice, low dose erlotinib; type: in vivo; settings: erlotinib 25 mg/kg 3 times per week; FIG. 27
Description: as §4
Subcutaneous PC-9 tumors were generated and measured as above. Chimera D3 was dosed as above; erlotinib was dosed at 25 mg/kg 3 times per week in order to examine the effect of the chimera D3 on the tumor growth with suboptimal erlotinib dosing. The treatment started on day 8 and ended on day 22.

[5] = system: A549 lung carcinoma cells; test: A549 proliferation assay; type: cell-based
Description: as §1, §2
Since the A549 cell line contains a KRAS mutation, it is expected that A549 cells be resistant to TKIs such as AZD9291 and erlotinib. MEK inhibitors such as trametinib were designed to target the RAS/MEK/ERK pathway. […]

PC-9 cells = test: PC-9 proliferation and clonal density assays; type: cell-based, human
Description: as §1, §2
Proliferation assays at clonal densities allows measurement of these DTPs. PC-9 cells are a human non-small cell lung cancer line with a EGFR deletion with high sensitivity to EGFR TKI's (24).

A431 = A431 survival and growth with TKI; type: cell-based, human; settings: FIG. 21
Description: as §1, §2, §3

[6] = system: H1975-T790M gefitinib-resistant; test: H1975 survival and growth with TKI; type: cell-based, human; settings: FIG. 21
Description: as §1, §2, §3

PC-91R = PC-91R gefitinib-resistant cell proliferation; type: cell-based; settings: FIG. 24A, FIG. 24B
Description: as §2
One mechanism of EGFR TKI resistance is the transition from an epithelial to mesenchymal phenotype (16). […] Consequently, a combination of chimera D3 and TKI may limit the resistance caused by epithelial to mesenchymal transition.

HT29 cells = test: HT29 proliferation assay; type: cell-based, human
Description: as §1, §2
The combination of drug (erlotinib and vemurafenib in hep3b and HT29 cells, respectively) and chimera can be synergistic; so, in addition to enhancing the inhibition, the chimera addition may also lower drug concentration requirements and reduce side effects.

[7] = number of tumors, increase in the tumor size
[8] = number of tumors, no measurable tumor
[9] = number of tumors, partial regression means a 20% or greater decrease in the tumor size

T1 sequence (P05019 49-118 limits assumed): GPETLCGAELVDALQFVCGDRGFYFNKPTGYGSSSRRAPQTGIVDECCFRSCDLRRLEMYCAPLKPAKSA

Q: With “IGFBP3: insulin-like growth factor-binding protein-3, wild-type (SEQ ID NO: 1) [reference compound]” as the molecule, how does the Kd (IGF-1) read?
A: The Kd was 0.363 nM.

Q: What about the EC50 (hep3B cells [1]; hep3B) of the same molecule?
A: Its EC50 is 200 nM.

Q: And the serum half-life [2]?
A: The serum half-life was 25 min.

B1: chimera D3: IGFBP3 with IGFBP3 linker deletion 3-Fc, SEQ ID NO: 12 (protein)
chain: MSEVPVARVWLVLLLLTVQVGVTAGGASSAGLGPVVRCEPCDARALAQCAPPPAVCAELVREPGCGCCLTCALSEGQPCGIYTERCGSGLRCQPSPDEARPLQALLDGRGLCVNASAVSRPAPPAPGNASESEEDRSAGSVESPSVSSTHRVSDPKFHPKGHAKVDYESQSTDTQNFSSESKRETEYGPCRREMEDTLNHLKFLNVLSPRGVHIPNCDKKGFYKKKQCRPSKGRKRGFCWCVDKYGQPLPGYTTKGKEDVHCYSMQSKVECPPCPAPPVAGPSVFLFPPKPKDQLMISRTPEVTCVVVDVSHEDPEVKFNWYVDGVEVHNAKTKPREEQYNSTYRVVSVLTVLHQDWLNGKEYKCKVSNKGLPSSIEKTISKAKGQPREPQVYTLPPSREEMTKNQVSLTCLVKGFYPSDIAVEWESNGQPENNYKTTPPVLDSDGSFFLYSKLTVDKSRWQQGNVFSCSVMHEGLHNHYTQKSLSLSPGK
Q: With B1 as the molecule, how does the “cancer cell survival and growth on addition to TKI” value (from here on “cancer cell survival and growth”) (HUH7) read?
A: Its value is “further inhibited”.

Q: And the “hep3B tumor growth compared with control mice” value (Hep3B cells [3]; 20 mg/kg twice weekly, luminescence, FIG. 25)?
A: The value was “grew more slowly”.

Q: What about the “T/C (tumor volume treated/control) ratio” value (Hep3B cells [3]; D3 alone, day 25) of the same molecule?
A: The value was 63%.

Q: What about the tumor growth inhibition (Hep3B cells [3]; D3 alone, day 25, p value of 0.0025) of the same molecule?
A: The tumor growth inhibition was 37%.

Q: What about the “Progression, Day 12” value (Hep3B cells [3]; [7]) of the same molecule?
A: The value was 5.

Q: What about the “Progression, Day 22” value (Hep3B cells [3]; [7]) of the same molecule?
A: The value was 4.

Q: And the “Complete regression, Day 12” value (Hep3B cells [3]; [8])?
A: The value was 2.

Q: And the “Complete regression, Day 22” value (Hep3B cells [3]; [8])?
A: Its value is 3.

Q: What about the “Partial regression, Day 12” value (Hep3B cells [3]; [9]) of the same molecule?
A: The value was 1.

Q: What about the “Partial regression, Day 22” value (Hep3B cells [3]; [9]) of the same molecule?
A: The value was 1.

Q: What about the “tumor growth after erlotinib treatment was stopped on day 19, compared to the erlotinib group” value ([4]; FIG. 26) of the same molecule?
A: Its value is “delayed tumor growth”.

Q: And the “tumor volume of treated to control (T/C)” value ([4]; day 20)?
A: Its value is 32%.

Q: What about the “hep3B proliferation on co-treatment with doxorubicin” value (hep3B cells [1]; 0.01 uM doxorubicin plus chimera D3) of the same molecule?
A: The value was “reduced proliferation even further”.

Q: And the “hep3B proliferation on co-treatment with erlotinib, sorafenib or afatinib” value (hep3B cells [1]; 2 uM erlotinib, 2 uM sorafenib, or 0.15 uM afatinib, FIG. 16B)?
A: Its value is “further reduced cell proliferation”.

Q: What about the “proliferation of hep3B cells treated with chimera alone vs no inhibitor” value (hep3B cells [1]; FIG. 16B) of the same molecule?
A: Its value is “reduced significantly”.

Q: And the IC50 (hep3B cells [1]; read-out: IC50, FBS-stimulated proliferation of hep3B cells)?
A: The IC50 was 105 nM.

Q: What about the IC50 (hep3B cells [1]; read-out: IC50, HGF-stimulated proliferation of hep3B cells) of the same molecule?
A: The IC50 was 47 nM.

Q: And the IC50 (hep3B cells [1]; read-out: IC50, IGF1-stimulated proliferation of hep3B cells)?
A: Its IC50 is 28 nM.

Q: What about the IC50 (hep3B cells [1]; read-out: IC50, bFGF-stimulated proliferation of hep3B cells) of the same molecule?
A: The IC50 was 69 nM.

Q: And the IC50 (hep3B cells [1]; read-out: IC50, nrg-stimulated proliferation of hep3B cells)?
A: The IC50 was 78 nM.

Q: And the “bFGF, IGF1, bFGF/IGF1, HGF and HGF/IGF rescue of erlotinib-treated hep3b cells” value (hep3B cells [1]; clonal proliferation assay, FIG. 22B)?
A: The value was “inhibited”.

Q: And the “inhibition of hep3B cells treated with erlotinib” value (hep3B cells [1]; combination with erlotinib, FIG. 15, FIG. 16A)?
A: Its value is “synergistically inhibited”.

Q: What about the EC50 (hep3B cells [1]; hep3B) of the same molecule?
A: Its EC50 is 85 nM.

Q: What about the “cancer cell survival and growth” value (hep3B cells [1]; hep3B, FIG. 21) of the same molecule?
A: Its value is “further inhibited”.

Q: What about the “tumor inhibition on addition of chimera D3 to erlotinib” value (PC-9 tumors) of the same molecule?
A: The value was “clearly improved the tumor inhibition”.

Q: And the “A549 growth on addition to cisplatin” value ([5]; FIG. 18B)?
A: The value was “further inhibited”.

Q: What about the “growth of A549 lung carcinoma cells” value ([5]; alone, or in combination with the TK (AZD9291, trametinib), FIG. 18A) of the same molecule?
A: The value was “reduced the growth”.

Q: And the “decrease of the IC50 of gefitinib” value (PC-9 cells; 200 nM D3Fc, PC-9, four-day assay, FIG. 19A)?
A: The value was 70 fold.

Q: And the “bFGF and HGF rescue of osimertinib-treated PC-9 cells” value (PC-9 cells; FIG. 23)?
A: Its value is “inhibited such rescue”.

Q: And the “clonal density assay with gefitinib” value (PC-9 cells; PC-9, FIG. 19B)?
A: Its value is “decreased the IC50 and reduced surviving cells”.

Q: And the “IGF1-induced cell survival under gefitinib” value (PC-9 cells; PC-9, FIG. 20)?
A: Its value is “dramatically reduced”.

Q: And the “cell growth with bFGF under gefitinib” value (PC-9 cells; PC-9, FIG. 20)?
A: The value was “substantially reduced cell growth”.

Q: And the “cancer cell survival and growth” value (PC-9 cells; PC-9, FIG. 21)?
A: The value was “further inhibited”.

Q: And the “reduction of the number of PC-9 cells surviving gefitinib” value (PC-9 cells; addition of chimera D3 to gefitinib)?
A: The value was “about 100 fold”.

Q: And the “cancer cell survival and growth” value (A431)?
A: Its value is “further inhibited”.

Q: And the “cancer cell survival and growth” value [6]?
A: The value was “further inhibited”.

Q: And the “sensitivity of gefitinib-resistant PC-91R cells to gefitinib” value (PC-91R)?
A: The value was “restored the cancer cells' sensitivity to gefitinib”.

Q: What about the “inhibition with vemurafenib in HT29 cells” value (HT29 cells; FIG. 17A isobologram, FIG. 17B) of the same molecule?
A: Its value is “synergistic inhibition”.

Q: What about the “cancer cell survival and growth” value (HT29 cells; HT29, FIG. 21) of the same molecule?
A: The value was “further inhibited”.

From patent publication US11254722B2, “Recombinant proteins and uses thereof” (ACADEMIA SINICA, priority 2017, dated 2022)
